Results from EP4803546A1 (Beijing Wisdomab Biotechnology Co., Ltd, dated 2026).
Read-outs that look alike come from different tables or passages of the source.

Experiments:
[1] = target: T1, MIP-P3-His (disulfide trap single-chain trimer of PRAME antigen peptide … and HLA-A24, His tag) (human); test: SPR, Biacore T200, as in Section 2.3; MIP-P3-His as analyte
T1 construct: Single polypeptide; His tag added at the C-terminus; also called dtSCT; MIP-P3-His fusion protein

[2] = target: T2, CD3 (recombinant, as analyte of Table 4) (human (homo sapiens), UniProt P07766 23-126; P04234 22-105); test: SPR, Biacore T200, as in Section 2.3; CD3 as analyte
T2 construct: That the analyte was a CD3E/CD3D pair is an inference; also called hCD3E; hCD3D
T2 sequence (P07766 23-126, chain 1 of 2): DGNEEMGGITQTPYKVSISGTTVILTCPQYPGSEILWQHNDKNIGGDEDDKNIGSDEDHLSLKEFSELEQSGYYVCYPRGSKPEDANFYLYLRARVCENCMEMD
T2 sequence (P04234 22-105, chain 2 of 2): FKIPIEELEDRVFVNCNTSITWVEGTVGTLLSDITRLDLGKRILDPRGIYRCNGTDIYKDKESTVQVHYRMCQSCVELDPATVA

[3] = target: T1, MIP-P3-His (disulfide trap single-chain …); test: SPR, Biacore T200, as in Section 2.3; MIP-P3-His as analyte; remark: listed apart in the source
[4] = target: HLA-A24 complex with Similar Peptide Segment 8 (…, XCR1) on cells (human; human (homo sapiens)); test: cell-based or functional assay
[5] = target: HLA-A24 complex with Similar Peptide Segment 11 (…, KIFBP) on cells (human; human (homo sapiens)); test: cell-based or functional assay
[6] = target: HLA-A24 complex with Similar Peptide Segment 12 (…, CPVL) on cells (human; human (homo sapiens)); test: cell-based or functional assay
[7] = target: HLA-A24 complex with Similar Peptide Segment 16 (…, PLD1) on cells (human; human (homo sapiens)); test: cell-based or functional assay
[8] = target: HLA-A24/PRAME complex: PRAME301-309 (…) presented by HLA-A24 on cells (human; human (homo sapiens)); test: cell-based or functional assay

Binder | Kd [1] | koff [1] | kon [1] | Kd [2] | koff [2] | kon [2] | Kd [3] | koff [3] | kon [3] | EC50 Value (nM) mediating the Activation of Jurkat-Dual Cells [4] | EC50 Value (nM) mediating the Activation of Jurkat-Dual Cells [5] | EC50 Value (nM) mediating the Activation of Jurkat-Dual Cells [6] | EC50 Value (nM) mediating the Activation of Jurkat-Dual Cells [7] | EC50 Value (nM) mediating the Activation of Jurkat-Dual Cells [8]
N83G3-h5 humanized single-domain antibody (Fc fusion, also called humanized mutant N83G3-h5; humanized molecule N83G3-h5) VHH: EVQLVESGGGLVKPGGSLRLSCAASGASLDIYVMGWYRQAPGKGLELVAVITGSGNTNYADSVKGRFTISRDDSKNTLYLQMNSLKTEDTAVYYCAGGRPSRYYRDSGTWADFWGQGTTVTVSS | 0.0747 nM | 5.52e-05 s⁻¹ | 737000 M⁻¹ s⁻¹ |  |  |  |  |  |  |  |  |  |  | 
bispecific antibody 2N83G3×IMCR (bispecific antibody, Arm 1 is 2N83G3-G1m3-FcH1n1 (two tandem N83G3 VHH on the hole Fc); Arm 2 is IMCR-ScFv-G1m3-FcKn1 (anti-CD3 scFv on the knob Fc); also called 2N83G3×IMCR BsAb) chain 1: QVQLVESGGGLVQAGGSLRLSCAASGASLDIYVMGWYRQATGKERDLVAVITGSGNTNYADSVKGRFTISRDDAKNTLYLQMSSLKPEDTAVYYCAGGRPSRYYRDSGTWADFWGQGTQVTVSSGGGGSGGGGSGGGGSQVQLVESGGGLVQAGGSLRLSCAASGASLDIYVMGWYRQATGKERDLVAVITGSGNTNYADSVKGRFTISRDDAKNTLYLQMSSLKPEDTAVYYCAGGRPSRYYRDSGTWADFWGQGTQVTVSSASERKSSVECPPCPAPEFEGGPSVFLFPPKPKDTLMISRTPEVTCVVVDVSQEDPEVQFNWYVDGVEVHNAKTKPREEQYNSTYRVVSVLTVLHQDWLNGKEYKCKVSNKALPASIEKTISKAKGQPREPQVCTLPPSQEEMTKNQVSLSCAVKGFYPSDIAVEWESNGQPENNYKTTPPVLDSDGSFFLVSKLTVDKSRWQEGNVFSCSVMHEALHNHYTQKSLSLSPGK chain 2: not shown |  |  |  | 4.57 nM | 0.000245 s⁻¹ | 53600 M⁻¹ s⁻¹ | 0.0544 nM | 7.65e-05 s⁻¹ | 1.41e+06 M⁻¹ s⁻¹ |  |  |  |  | 
humanized bispecific antibody 2N83G3-h5×IMCR (bispecific antibody, Arm 1 is 2N83G3-h5-G1m3-FcH1n1 (two tandem N83G3-h5 VHH on the hole Fc); Arm 2 is IMCR-scFv-G1m3-FcKn1 (anti-CD3 scFv on the knob Fc); also called 2N83G3-h5×IMCR BsAb) chain 1: EVQLVESGGGLVKPGGSLRLSCAASGASLDIYVMGWYRQAPGKGLELVAVITGSGNTNYADSVKGRFTISRDDSKNTLYLQMNSLKTEDTAVYYCAGGRPSRYYRDSGTWADFWGQGTTVTVSSGGGGSGGGGSGGGGSEVQLVESGGGLVKPGGSLRLSCAASGASLDIYVMGWYRQAPGKGLELVAVITGSGNTNYADSVKGRFTISRDDSKNTLYLQMNSLKTEDTAVYYCAGGRPSRYYRDSGTWADFWGQGTTVTVSSASERKSSVECPPCPAPEFEGGPSVFLFPPKPKDTLMISRTPEVTCVVVDVSQEDPEVQFNWYVDGVEVHNAKTKPREEQYNSTYRVVSVLTVLHQDWLNGKEYKCKVSNKALPASIEKTISKAKGQPREPQVCTLPPSQEEMTKNQVSLSCAVKGFYPSDIAVEWESNGQPENNYKTTPPVLDSDGSFFLVSKLTVDKSRWQEGNVFSCSVMHEALHNHYTQKSLSLSPGK chain 2: not shown |  |  |  |  |  |  | 0.065 nM | 8.06e-05 s⁻¹ | 1.24e+06 M⁻¹ s⁻¹ | 3.71 nM | 1.02 nM | 5.32 nM | 1.07 nM | 0.011 nM
